Our source for the decrease in transfer of GPI-APs from wildtype EL cells to ManN-treated human adipocytes in transwell co-culture (1 week), read by SAW sensing of acceptor PM; BSA 50 mg/mL, final dilution 1:75 and transfer of GPI-APs from wildtype EL cells to ManN-treated human adipocytes in transwell co-culture (1 week), read by SAW sensing of acceptor PM; GPLD1 100 mU/mL (% of serum inhibition) values is article PMC9267055.

The target of assay [1] is GPI-APs (transferred from wildtype EL cells to ManN-treated human adipocytes) (human (endogenous in K562 EL cells)).
The target is the same in assay [2]. This is another data set of the same source.

In assay [1], “BSA (fraction V, defatted) (from UniProt P02769 25-607) (natural protein)” gave a decrease in transfer of GPI-APs from wildtype EL cells to ManN-treated human adipocytes in transwell co-culture (1 week), read by SAW sensing of acceptor PM; BSA 50 mg/mL, final dilution 1:75 of 35%.

B1: serum GPLD1 (enzyme)
chain: CGLSTHVEIGHRALEFLQLHNGRVNYRELLLEHQDAYQAGIVFPDCFYPSICKGGKFHDVSESTHWTPFLNASVHYIRENYPLPWEKDTEKLVAFLFGITSHMAADVSWHSLGLEQGFLRTMGAIDFHGSYSEAHSAGDFGGDVLSQFEFNFNYLARRWYVPVKDLLGIYEKLYGRKVITENVIVDCSHIQFLEMYGEMLAVSKLYPTYSTKSPFLVEQFQEYFLGGLDDMAFWSTNIYHLTSFMLENGTSDCNLPENPLFIACGGQQNHTQGSKMQKNDFHRNLTTSLTESVDRNINYTERGVFFSVNSWTPDSMSFIYKALERNIRTMFIGGSQLSQKHVSSPLASYFLSFPYARLGWAMTSADLNQDGHGDLVVGAPGYSRPGHIHIGRVYLIYGNDLGLPPVDLDLDKEAHRILEGFQPSGRFGSALAVLDFNVDGVPDLAVGAPSVGSEQLTYKGAVYVYFGSKQGGMSSSPNITISCQDIYCNLGWTLLAADVNGDSEPDLVIGSPFAPGGGKQKGIVAAFYSGPSLSDKEKLNVEAANWTVRGEEDFSWFGYSLHGVTVDNRTLLLVGSPTWKNASRLGHLLHIRDEKKSLGRVYGYFPPNGQSWFTISGDKAMGKLGTSLSSGHVLMNGTLKQVLLVGAPTYDDVSKVAFLTVTLHQGGATRMYALTSDAQPLLLSTFSGDRRFSRFGGVLHLSDLDDDGLDEIIMAAPLRIADVTSGLIGGEDGRVYVYNGKETTLGDMTGKCKSWITPCPEEKAQYVLISPEASSRFGSSLITVRSKAKNQVVIAAGRSSLGARLSGALHVYSLGSD
In assay [2], B1 displayed a transfer of GPI-APs from wildtype EL cells to ManN-treated human adipocytes in transwell co-culture (1 week), read by SAW sensing of acceptor PM; GPLD1 100 mU/mL (% of serum inhibition) of 70.
